From the nanobody polyreactivity screen of Harvey et al. (2022)

Assay: yeast display, Sf9 membrane polyspecificity reagent, FACS + sequencing; frameworks hold sequencing errors
How it was run: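 Synthetic nanobody libraries on Saccharomyces cerevisiae BJ5465 were galactose-induced for 36–48 hours, stained 1 hour at 4 °C with 10% biotinylated, detergent-solubilized Sf9 membrane reagent and enriched on streptavidin microbeads. FACS then separated cells into low and high (top ~1%) gates by anti-HA (expression) and streptavidin (reagent binding) fluorescence. Genes were colony-PCR amplified, MiSeq 2 × 250 sequenced and CDR-length filtered. A clone's polyreactivity label is that of its gate of origin.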

Row | Sequence | polyreactivity (PSR sort gate)
1 | QVQLVESGGGLVQAGGSLGLSCAATGSTIPYNAMGWYRQAPGKERELVAAINSAGGTNYADSVKGRFTISRDNAKNTVYLQMNSRKPEDTAVYYCAADGSGYYDWYYYWGQGTQVTVSS | low polyreactivity
2 | QVQLVESGGGLVQAGGSLRLSCAASGFTFQGNAMGWYRQAPGKERELVAAISWSGGRTYYADSVKGRFTISRDNAKNTVYCQMNSLKPEDTAVYYCAIVYKDVSGDDYWGQGTQVTVSS | low polyreactivity
3 | QVQLVESGGGLVQAGGSLRLSCAASGRTFRGNAMGWYRQAPGKERELVATITFSGGSTYYADSVKWRFTISRDNAKNTVYLQMNSLKPEDTAVYYCAVRGLHLVWVPFGYDYWGQGTQVTVSS | low polyreactivity
4 | QVQLVESGGGLVQPGGSLRLSCAASGRIFYRYAMGWYRQAPGKERELVAAITARGGSTYYADSVKGRFTISRDNAKNTVYLQMNCLKPEDTAVYYCNKLLSNPYYPSYDYWGQGTQVTVSS | high polyreactivity
5 | EVQLVESGGGLVQAGGSLRLSCAAYGFTFVVYDMGWYRQAPGKERELVAAISRRGGNTYYADSVKGRFTISRDNAKNTVYLQMNSLKPEDTAVYYCNAVRTRKAYDYWGQGTQVTVSS | low polyreactivity
6 | QVQLVESGGGLVQAGGSLRLSCAASGIIFPYNVMGWYRQAPGKERELVAAITRGAASTYYADSVKGRFTISRDNAKNTVYLQMNSLKPEDTAVYYCNADGTWRTYNYWGQGTQVTVSS | high polyreactivity
7 | QVQLVESGGGLVQAGGSLRLSCAASGRIFGYYAMGWYRQAPGKERELVAAINSGGSTNYADSVKGRFTISRDNAKNTVYLQMNSLKPEDTAVYYCAAGWRYRYFRSRNFYPYYYWGQGTQVTVSS | high polyreactivity
8 | QVQLQESGGGLVQAGGSLRLSCAASGPISGPHVMGWYRQAPGKEREFVAAINVGANTYYADNVKGRFTISRDNATNTVYLQMNSLKPEDTAVYYCAAVYYGDIGHEYWGQGTQVTVSC | low polyreactivity
9 | QVQLVESGGGLVQAGGSLRLSCAASGRIFRYYAMGWYRQAPGKERELDAGITGRGGRTYYADSVKGRFTISRDNAKNTVYLQMNSLKPEDTAVYYCAATVSPSYDYWGQGTQVTVSS | high polyreactivity
10 | QVQLVESGGGLVQAGGSLRLSCAASGRIFGSYAMGSYRQAPGKERELVAAINWRGGSTFYADSVKGRFTISRDNAKNTVYLQMNSLKPEDTAVYYCARRGYRQSGDYWGQGTQVTVSS | low polyreactivity
11 | QVQLVESGGGLVQAGGSLRLSCAASGFTSYTNAMGWYRQAPGKERELVAAIDVSGSDTYYADSVKGRFTISRDNAKNTVYLQMNSLKPEDTAVYYCAAEYYSYYYQGYDYWGQGTQVTVSS | high polyreactivity
12 | QVQLVESGGGLVQAGGSLRLSCAASGRIFWDNAMGWYRQAPGKERELVAAISDSVVITYYADSVKGRFTISRDTAKNTVYLQMNSLKPEDTAVYYCGADKRGTVYLSSFWMDYWGQGTQVTVSS | low polyreactivity
13 | QVQLVESGGGLVQAGGTLRLSCAASGRIFSDYAMGWYRQAPGKEREFVAAISSSGGRTYYADSVKGRFTISRDNAKNTVYLQMNSLKPEDTAVYYCNRYNGYYNTGRYGYLGQGTQVTVSS | high polyreactivity
14 | QVQLVESGGGLVQAGGSLRLSCAASGRIFRWNVTGWYRQAPGKETELDASITSGSSTNYADSVKGRFTISRDNAKYTVFLQMNSLKPEDTAVYYSAAYGVQTYRRYSYPRGFDYWGQGTQVTVSS | high polyreactivity
15 | QVQLVESGGGLVQAGGRLRLSCAPSGRIFVYNAMGWYRQAPGKERELVAAINSGDSTYYADSVKGRFTISRDNAKKTVYLQMNSLKPEDTAVYYCARDGWAFSIYYDLDYWGQGTQVTVSA | low polyreactivity
16 | QVQLVESGGGLVQAGGSLRLSCAASGSTFHRYTMGWYRQAPGKERELLAAISWSGGSTYYADSVKGRFTISRDNAKNTVYLQMNSLKPEDTAVYYSNKVTVYRFRGDSWGQGTQVTVSS | high polyreactivity
17 | QVQLVESVGGLVQAGGSLRLSCAASGLIFVRYAMGWYRQAPGKERELVATITWSGGTTYADSVKGRFTISRDNAKNTVYLQMNSLKPEDTAVYYCAVEWPAWTDSDYPVGGHAFGYWGQGTQVTVSS | low polyreactivity
18 | QVQLVESGGGLVQAGGSLRLSCAASGSIFEGNTMGWYRQAPGKERELVASISSTANTYYADSVKGRFTLSRDNAKKNVYLQMNSLKPEDTAVYYCNVARYFLVPVVDDNYWGQGTQVTVSS | low polyreactivity
19 | QVQLVESGGGLVQAGGSLRLSCAASGYTVRFNAMGWYRQAPGKEREFVAAIDFGGAGTYYADSVKGRFTISRDNAKNTVYLQMNSLKPEDTAVYYCNARDGVTTEFDYWGQGTQVTVSS | low polyreactivity
20 | QVQLVESGGGIVQAGGSLRLSCAASGSNFVVNAMGWYRQAPGKERELVAAITQSGGSTFYADSVKGRFTISRDNAKNTVYLQMNSLIPEDTAVYYWGQGTQVTVSS | low polyreactivity
21 | QVQLVESGGGLVQAGGSLRLSCAASGRIFRGYAMGWYRQAPGKERELVAAISNGGGTNYADTVKGRFTISRDNAKNTVYLQMNSLKPEDTAVYYCATGFLQNYYKYTSSFRFYYWGQGTQVTVSS | high polyreactivity
22 | QVQLVESGGGLVQAGGSLRLSCAASGRTFGRNAMGWYRQAPGKERELVAAISTSGSRTYYADSVKGRFTISRDNAKNTVYLQMNSLKPEDTAVYYCNAYGVSRGSYGTRGYWGQGTQVTVSS | high polyreactivity

Row | Sequence | polyreactivity (PSR sort gate)
23 | QVQLVESGGGIVQAGGSLRLSCAASGSTFYVYALGWYRQAPGKERELVAAINFNGGGTYYADSVKGRFTISRDNAKNTVYLQMNRLKPEDTAVYYCNAEDDYTYDRSFGGYKYDYWGQGTQVTVSS | low polyreactivity
24 | QVQLVESGGGLVQAGGSLRLSCAASGSTFHRNAMGWYRQAPGKERELVAAITSGGSTNYADSVKGRFKISRDNAKNTVYLQMNSLKPEDTAVYYCAADEVWGRDLGEYWGQGTQVTVSS | low polyreactivity
25 | QVQLVESGGGLVQAGGSLRLSCAASGRIFPYYAMGWYRQAPGKERELVATISGGGSTDYADSVKGRFTISRDNAKNTVYLQMNSLKPEDTAVYYFAKKLRGWHTIITDYDYWGQGTQVTVSS | low polyreactivity
26 | QVQLVESGGGLVQAGGSLRLSCAASGSIFRSYAMGWYRQAPGKERELVAAIRSDGRTNYADSVKGRFTISRDNAKNTVYFQMNSLKPEDTAVYYCDANAYYSYWRSMDYWGQGTQVTVSS | low polyreactivity
27 | QFQLVESGGGLVQAGGSLRLSCAASGSIFKYYTMGRYRQAHGKEMELVAYISSGGSTKYADSVKGRFTISRDNAKNTVYLQMNSLKPEDTAVYYCAKRYYYFYPDYDYWGQGTQVTVSS | high polyreactivity
28 | QVQLVESGGGLVQAGGSLRLSCAASGSTLKSYVMGWYRQAPGKERELVARISRSGGSTYYADSVKGRFTISRDNAKNTVYLQMNSLKPEDTAVYYCAAATPRLSYDYWGQGTQVTVSS | high polyreactivity
29 | QVQLVESGGGLVQAGGSLRLSCAASGSIFTRYAMGWYRQAPGKERELVAAITASGGRTYYADSVKGRFTISRDNAKNTVYLQMNSLKPEDTAVYYCNTYWRYTSQLPYDYWGQGTQVTVSS | high polyreactivity
30 | QVQLVESGGGLVQAGGSLRLICAASGITIKRSAMGWYRQPPGKEREFVATISQSGTSTYYADSVKGLFTISRDNAKNTVYLQMNSLKPEDTAVYYCAADYIGYWYGYYSWGHGTQVTVSS | low polyreactivity
31 | QVQLVESGGGLVQAGGSLRLSLAASGLSLRNYAMGWYRQAPGKERELVADITTGGGRTYYADSVKGRFTISRDNAKNTVYLQMNSLKPEDTAVYYCAAPTHLHGHGNQNEFYYWGQGTQVTVSS | low polyreactivity
32 | QVQLVESGGGLVQAGGSLRLSCAASGYIFLNYAMGWYRQAPGKEREFVATITSSGGTTYYADSVKGRFTISRDNAKNTVYLQMNSLKPEDTAVYYCNADAGWYDWVYYVGRDYWGQGTQVTVSS | low polyreactivity
33 | QVQLVESGGGLVQAGGSLRLSCAASGFIFGYYVMGWYRQAPGKERELVAAISGSGGRTYYADSVKGRFTISRDNAKNNVYLQMNSLKPEDTAVYYCNAVAFYRDYNYWGQGTQVTVSS | high polyreactivity
34 | QVQLVEAGAGLVQAGGSLRLSCAASGGIFGQYTRGWSRHAPGKERELVAGISTSGGSTYYADSVKGRFTISRDYAKNTVYLQMNSLKPGDTAVYYCAAGSYRKRVTNYSYRTPYGYWGHGTQVTVSS | high polyreactivity
35 | QVQLVESGGGLVQAGGSLRLSCASSGRIFSQNAMGWYRQAPGKERELVAAISGGSTNYADSVKGRFTISRDNAKNPVYLQMNSLKPEDTAVYYCAADAPFKMDYWGQGTQVTVSS | low polyreactivity
36 | QVQLVESGGGVVQAGGSLRLSCAASGRIIPYYAMGWYRPAPGTERELVAAISWTDGTTFYADSVKGRFTISRDNAKNTVYLQMNSLKPEDTAVYYCAASVYQDKGYDYWGQGTQVTVSS | low polyreactivity
37 | QVQLVESGVGLVQAGGSLRLSCAASGFTFKSYTMGWYRQAPGKERELVANISRRGGSTYYADSVKGRFTISRDTAKNTVYLQMNRLKPEDTAVYYCAADAYGFLYTTYRYFYWGQGTQVTVST | high polyreactivity
38 | QVQLVESGGGLVQAGGSLRLSSAASGSIFQDYAMGWYRQEPGKERELVAGINWRGDDTYADSVKGRFTISRDNAKNTVYLQMNSLKPEDTAVYYCNAEDWGYGYDYWGQGTQVTVSS | low polyreactivity
39 | QVQLVESGGGLVQAGGSLRLSCAASGRIFGAYAMGWYRQAPGKERELVAAITSRGGNTYYADSVKGRFTISRDNAKNTVDLQMNSLKPEDTAVYYCAARHDKRRQYYFGQSAFDYWGQGTQVTVSS | low polyreactivity
40 | QVQLVESGGGLVQAGGSLRLSCAASGRIFGNNAMGWYRQAPGKERELVAAITSGGSTNYADSVKGRFTISRDNAKNTVYLQMNSLKPEDTAVYYCAKRWVYKYRHYDYWGQGTQVTVSS | low polyreactivity
41 | QVQLVESGGGLVQAGGSLRLSCAASGRTFLYYAMGWSRQAPGKEMELVAAIRRGSSTYYADSVKGRFTISRDNAKITVYLQRNCPKPEDTAVYYCAARSFAITKYGSYDYWGQGTQVTVSS | high polyreactivity
42 | QVQLVESGGGLVQAGGSLRLSCAASGRIFRYYAMGWYRQAPGKERELVAAITKNGGSTYYADSVKRRFTISRDNAKNTVYLQMNSLKPEDTAVYYCAAARLGNYDYWGQGTQVTVSS | high polyreactivity
43 | QVQLVESCGGIVQAGGSLRLRCAASGFIFEYYAMVWYRQAPGKERELVAAINWGGGRTRYADSVKGRFTISPYNAKNTVYLQMNSLKPEDTAVYYCAARYGYRYDSWGQGTQVTVSS | high polyreactivity
